Results taken from US20240043504A1 (published 2024).
Numbering of substitutions follows the chain as printed. Where two headings read alike, the source gives them in different places.

T1: MERS-CoV (NCoV/Novel coronavirus) Spike Protein S2 (aa 726-1296, His Tag) (Sino 40070-[change]) (MERS-CoV, UniProt K9N5Q8 726-1296)
T1 sequence: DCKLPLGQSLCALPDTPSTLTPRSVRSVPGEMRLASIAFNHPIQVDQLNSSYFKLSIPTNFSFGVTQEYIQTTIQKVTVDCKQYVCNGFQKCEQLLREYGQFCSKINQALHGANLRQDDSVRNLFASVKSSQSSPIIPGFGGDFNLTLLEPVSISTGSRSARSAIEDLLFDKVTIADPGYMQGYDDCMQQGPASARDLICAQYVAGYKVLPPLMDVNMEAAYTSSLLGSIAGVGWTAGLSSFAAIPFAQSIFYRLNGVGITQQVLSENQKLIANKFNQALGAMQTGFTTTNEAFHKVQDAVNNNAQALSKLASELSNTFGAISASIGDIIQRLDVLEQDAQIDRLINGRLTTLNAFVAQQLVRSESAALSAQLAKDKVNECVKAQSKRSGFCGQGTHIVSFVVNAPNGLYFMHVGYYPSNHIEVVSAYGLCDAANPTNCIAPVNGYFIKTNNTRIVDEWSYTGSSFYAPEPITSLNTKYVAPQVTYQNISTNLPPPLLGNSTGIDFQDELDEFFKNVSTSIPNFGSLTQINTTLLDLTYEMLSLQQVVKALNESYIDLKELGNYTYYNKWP

T2: MERS-CoV (NCoV/Novel coronavirus) Spike Protein (ECD, aa 1-1297, His Tag) (Sino 40069-[change]) (MERS-CoV, UniProt K9N5Q8 18-1297)
T2 sequence: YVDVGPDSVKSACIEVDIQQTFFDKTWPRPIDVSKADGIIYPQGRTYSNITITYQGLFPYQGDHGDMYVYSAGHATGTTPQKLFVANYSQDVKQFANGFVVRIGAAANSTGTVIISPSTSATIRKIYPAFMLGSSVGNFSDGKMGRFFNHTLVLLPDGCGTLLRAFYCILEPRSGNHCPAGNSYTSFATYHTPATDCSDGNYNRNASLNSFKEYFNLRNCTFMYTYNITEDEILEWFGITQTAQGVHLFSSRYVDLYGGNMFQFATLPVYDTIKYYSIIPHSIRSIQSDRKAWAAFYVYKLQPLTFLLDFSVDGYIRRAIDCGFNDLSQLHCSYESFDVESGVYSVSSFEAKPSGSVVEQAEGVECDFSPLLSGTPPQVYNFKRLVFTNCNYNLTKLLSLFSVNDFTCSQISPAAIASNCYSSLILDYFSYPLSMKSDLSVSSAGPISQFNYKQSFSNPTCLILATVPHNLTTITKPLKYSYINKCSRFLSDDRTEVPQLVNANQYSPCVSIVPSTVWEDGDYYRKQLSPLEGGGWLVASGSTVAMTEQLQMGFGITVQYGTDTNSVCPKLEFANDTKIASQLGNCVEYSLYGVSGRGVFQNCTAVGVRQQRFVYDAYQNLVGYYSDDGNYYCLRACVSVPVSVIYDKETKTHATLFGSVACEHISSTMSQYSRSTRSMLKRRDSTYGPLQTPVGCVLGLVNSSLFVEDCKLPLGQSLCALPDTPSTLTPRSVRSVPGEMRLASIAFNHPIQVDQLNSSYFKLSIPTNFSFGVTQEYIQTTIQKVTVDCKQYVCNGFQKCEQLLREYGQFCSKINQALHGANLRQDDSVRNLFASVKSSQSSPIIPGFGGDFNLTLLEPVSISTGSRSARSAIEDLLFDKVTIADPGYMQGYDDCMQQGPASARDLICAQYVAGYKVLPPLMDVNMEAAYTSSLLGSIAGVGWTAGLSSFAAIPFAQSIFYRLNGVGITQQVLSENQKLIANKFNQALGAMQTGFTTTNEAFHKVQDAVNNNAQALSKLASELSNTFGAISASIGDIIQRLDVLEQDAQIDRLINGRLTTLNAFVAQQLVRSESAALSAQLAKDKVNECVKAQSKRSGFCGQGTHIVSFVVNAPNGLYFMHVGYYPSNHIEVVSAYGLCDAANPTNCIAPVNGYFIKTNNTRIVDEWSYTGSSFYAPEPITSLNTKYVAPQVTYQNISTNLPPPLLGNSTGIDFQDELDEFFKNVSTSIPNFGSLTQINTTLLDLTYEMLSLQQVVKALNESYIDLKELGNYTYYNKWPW

T3: MERS-CoV (NCoV/Novel coronavirus) Spike Protein fragment (RBD, aa 367-606, His Tag) (Sino 40071-V08B1) (MERS-CoV, UniProt K9N5Q8 367-606)
T3 sequence: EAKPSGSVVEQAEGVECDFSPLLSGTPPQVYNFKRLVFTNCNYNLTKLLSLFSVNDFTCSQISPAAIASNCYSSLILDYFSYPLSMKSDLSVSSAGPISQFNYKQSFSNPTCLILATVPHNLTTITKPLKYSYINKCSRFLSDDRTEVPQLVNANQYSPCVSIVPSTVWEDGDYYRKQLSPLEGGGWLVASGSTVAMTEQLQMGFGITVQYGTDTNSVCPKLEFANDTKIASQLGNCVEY

B1: mAb10970 (antibody, V domains shown)
VH: EVQLVESGGGLVQPGGSLRLSCAASGFTVSSNYMSWVRQAPGKGLEWVSVIYSGGSTYYADSVKGRFTISRDNSKNTLYLQMNRLRADDTAVYYCVRDPVGRYYYGMDVWGQGTTVTVSS
VL: not shown
B2: mAb10987 (antibody, V domains shown)
VH: QVQLVESGGGVVQPGRSLRLSCAASGFTFSNYAMYWVRQAPGKGLEWVAVISYDGSNKYYADSVKGRFTISRDNSKNTLYLQMNSLRTEDTAVYYCASGSDYGDYLLVYWGQGTLVTVSS
VL: QSALTQPASVSGSPGQSITISCTGTSSDVGGYNYVSWYQQHPGKAPKLMIYDVSKRPSGVSNRFSGSKSGNTASLTISGLQSEDEADYYCNSLTSISTWVFGGGTKLTVLG
B3: mAb10955 (antibody, V domains shown)
VH: EVQLVESGGGLVQPGGSLRVSCAASGFTVSRNYMSWVRQAPGKGLEWVSVIYSGGSTFYADSVKGRFTISRDNSKNTLYLQMNSLRAEDTAIYYCARYIPRFDPWGQGTLVTVSS
VL: DIQMTQSPSSLSASVGDRVTITCQASQDISNYLNWFQQKPGRAPKLLIYDASNLETGVPSRFSGSGSGTDFTFTISSLQPEDIATYYCQQYDNLPITFGQGTRLEIKR
B4: mAb11010 (antibody, V domains shown)
VH: QVQLVESGGGVVQPGRSLRLSCAASGFTFSSYGMHWVRQAPGKGLEWVAVISYDGSYKYYADSVKGRFTISRDNSKNTLYLQMNSLRAEDTAVYYCAIDGGTVTTIFDYWGQGTLVTVSS
VL: not shown
B5: mAb10969 (antibody, V domains shown)
VH: QVQLVESGGGVVQPGRSLRLSCAASGFTFSSYAMHWVRQAPGKGLEWVAVISYDGSNKYYADSVKGRFTISRDNSKNTLYLQMNSLRAEDTAVYYCARDGRTITMVRGVIDDAFDIWGQGTMVTVSS
VL: not shown
B6: mAb10964 (antibody, V domains shown)
VH: QVQLQESGPGLVKPSETLSLTCTVSGGSINNYYWIWIRQPPGKGLEWIGYIYHSGSTNYNPSLKSRVTISVDTSKNQFSLKVSSVTAADTAVYYCANMVRGVYEDDYWGQGTLVTVSS
VL: DIQMTQSPSSLSASVGDRVTITCRASQSISNYLNWYQQKPGKAPKLLIFAASSLRSGVPSRFSGSGSGTDFTLTISSLHPEDFATYYCQQNYNTPLTFGPGTKVDIKR
B7: mAb10998 (antibody, V domains shown)
VH: EVQLVESGGGLVHPGGSLRLSCAASGLTVSSNYMSWVRQAPGKGLEWVSVIYSGGSTYYADSVKGRFTISRHNSKNTLFLQMNSLRAEDTAVYYCARDRPITGTTLDVWGQGTTVTVSS
VL: DIQMTQSPSSLFASVGDRVTITCRASQSISSYLNWYQQKPGKAPKLLIYAASSLQSGVPSRFSGSGSGTDFTLTISSLQPEDFAFYYCQQTYSTPPITFGQGTRLEIK
B8: mAb11002 (antibody, V domains shown)
VH: EVQLVESGGGLVQPGGSLRLSCAASGFTVSSNYMSWVRQAPGKGLEWVSVIYSGGSTFYADSVKGRFTISRHNSKNTLYLQMNSLRAEDTAVYYCAREGYGMDVWGQGTTVTVSS
VL: not shown
B9: mAb10971 (antibody, V domains shown)
VH: EVQLVESGGGLIQPGGSLRLSCAASGVTVSSNYMSWVRQAPGKGLEWVSVIYSGGSTFYSDSVKGRFSISRDNSKNTLYLQMNSLRAEDTAVYYCARDLYYYGMDVWGQGTTVTVSS
VL: DIQLTQSPSFLSASVGDRVTITCRASQGISTYLAWYQQKPGKAPKLLIYAASTLQSGVPSRFSGSGSGTEFTLTISSLQPEDFATYYCQQLDSYPGLTFGGGTKVEIKR
B10: mAb11000 (antibody, V domains shown)
VH: B9 VH with I12V, V27F, S35N, S60A, K64R, S68T, D72H, L99G, Y100S, Y101A
VL: not shown
B11: mAb11004 (antibody, V domains shown)
VH: QVQLVESGGGVVQPGRSLRLSCVASGFTFSIYGMDWVRQAPGKGLEWVAVISYDGSNKYYADSVKGRFTISRDNSKNTLYLQMNSLRPEDTAVYYCAKDREAAADAFDIWGQGTMVTVSS
VL: DIQMTQSPSSVSASVGDRVTITCRASQGISSWLAWYQQKPGKAPKLLIYAASSLHSGVPSRFSGSGSGTDFTLTISSLQPEDFATYYCQQANSFRLTFGGGTKVEIK

Tests used:
Assay in all cases: Luminex bead binding, supernatant
[1] = molecular target: T1, MERS-CoV (NCoV/Novel coronavirus) Spike …
[2] = molecular target: T2, MERS-CoV (NCoV/Novel coronavirus) Spike …
[3] = molecular target: T3, MERS-CoV (NCoV/Novel coronavirus) Spike …
[4] = molecular target: T4, Human SARS Coronavirus Spike S1 Subunit Protein (His Tag) (Sino 40150-V08B1) (Human SARS Coronavirus, UniProt P59594 14-667)
[5] = molecular target: SARS-CoV-2 Spike Protein (RBD)(R319-F541).hFc (mAb10622-L1) (SARS-CoV-2)
[6] = molecular target: SARS-CoV-2 Spike Protein (RBD)(R319-F541).mFc (mAb10621-L1) (SARS-CoV-2)
[7] = molecular target: T4, Human SARS Coronavirus Spike S1 Subunit …; remark: listed apart in the source
[8] = molecular target: Bt-SARS-CoV-2 Spike Protein (RBD)(R319-F541).mFc (mAb10621-L2) (SARS-CoV-2)
[9] = molecular target: T3, MERS-CoV (NCoV/Novel coronavirus) Spike …; remark: listed apart in the source
[10] = molecular target: T1, MERS-CoV (NCoV/Novel coronavirus) Spike …; remark: listed apart in the source
[11] = molecular target: T2, MERS-CoV (NCoV/Novel coronavirus) Spike …; remark: listed apart in the source

Binder | Binding signal (MFI) [1] [MFI] | Binding signal (MFI) [2] [MFI] | Binding signal (MFI) [3] [MFI] | Binding signal (MFI) [4] [MFI] | Binding signal (MFI) [5] [MFI] | Binding signal (MFI) [6] [MFI] | Binding signal (MFI) [7] [MFI] | Binding signal (MFI) [8] [MFI] | also measured
B1 | 16 | 14 | 23 |  |  |  |  |  | 
B2 | 23 | 15 |  |  |  |  |  |  | 
B3 | 18 | 15 | 20 | 14 |  |  |  |  | 
B4 |  |  |  |  | 8880 | 14400 | 7420 | 9350 | 
B5 | 20 | 16 | 26 | 20 |  |  |  |  | 
B6 |  | 15 | 20 | 5190 |  |  |  |  | 
B7 |  |  |  |  | 1740 | 2230 | 16 | 2230 | 
B8 |  |  |  |  | 9380 | 9530 | 31 | 2200 | 
B9 | 13 | 15 | 20 | 20 |  |  |  |  | 
B10 |  |  |  |  |  |  |  |  | Binding signal (MFI) [9]: 27 MFI
B11 |  |  |  |  | 4880 | 4580 | 33 | 4300 | Binding signal (MFI) [10]: 20 MFI; Binding signal (MFI) [11]: 15 MFI; Binding signal (MFI) [9]: 26 MFI
